The text below walks through data of US20180022797A1 (published 2018).

For the assay, the target named is T1, peptide 13 (TSESGELHGLTTE) (human, also: biotinylated, site not given here).
T1 construct: on the D-strand
T1 peptide: TSESGELHGLTTE
Description: ELISA: antibody titrated on NeutrAvidin-captured biotinylated peptide, non-linear regression. On the procedure:
ELISA assay was then utilized to identify the corresponding epitope(s) for each antibody. 5 μg/mL of NeutrAvidin (Pierce, USA) in 50 mM pH 9.6 sodium carbonate/bicarbonate buffer was used to coat 96-well Corning high-binding EIA/RIA plates. The plates were washed three times with TBST buffer and blocked with Superblock (Pierce, USA). Fifty to one hundred microliters of the biotinylated peptides were diluted with PBS to […] and added to each well and incubated at room temperature for one hour. […] After one hour room temperature incubation and washing steps, HRP-conjugated secondary antibody was applied. Goat-anti-mouse IgG or Fc HRP conjugates were used in the case of mouse monoclonal antibodies while goat-anti-rabbit IgG HRP conjugate antibody was used for rabbit polyclonal detection. TMB was used as the HRP substrate for the detections.
A general note: In an ELISA, binding on a coated surface is turned into a signal by an enzyme label.

Ends that are not written are not given here.

B1: MFD108 (antibody, V domains shown)
VH: EVQLVESGGDLVKPGGSLKLSCAASGFTFSNYGMSWVRQTPDKRLEWVATITSGGSYTYYPDSVKGRFTISRDNAKNTLYLQMSSLKSEDTAMYYCARDGTAWFAYWGQGTLVTVSA
VL: DIQMTQTTSSLSASLGDRVTISCRASQDISNYLNWYQQKPDGTVKLLIYYTSRLHSGVPSRFSGSGSGTDYSLTISNLEEEDIATYFCQQGNTLRTFGGGTKLEIK
notes: Mouse monoclonal IgG1, kappa light chain; also called mouse monoclonal antibody MFD108; hybridoma ATCC PTA-120816
Turning to B1, the Kd came out at 0.25 nM.

Usually Kd stands for a measure of binding affinity in units of concentration.
